# Legend:
# AncSZ = assay: phosphorylation enrichment, bacterial display (enrichment ratio); higher = better substrate or ligand; peptides without Tyr show the background
# FGFR1 = FGFR1 (UniProt P11362); assay: as above
# c-Abl (mouse) = assay: as above
# FGFR3 = FGFR3 (UniProt P22607); assay: as above
# Fer (mouse) = assay: as above
# Fyn = Fyn (UniProt P06241); assay: as above
# Jak2 = Jak2 (UniProt O60674); assay: as above
# Hck = Hck (UniProt P08631); assay: as above
# EPHB2 = EPHB2 (UniProt P29323); assay: as above
# MERTK = MERTK (UniProt Q12866); assay: as above
# EPHB1 = EPHB1 (UniProt P54762); assay: as above
# Fes = Fes (UniProt P07332); assay: as above
# c-Src = assay: as above
# SHP2-C SH2 = assay: SH2 binding enrichment of the phosphorylated peptide, bacterial display (enrichment ratio); higher = better substrate or ligand; peptides without Tyr show the background
# c-Src SH2 = assay: as above
# Grb2 SH2 = Grb2 SH2 (UniProt P62993); assay: as above
# 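For SH2 binding enrichment of the phosphorylated peptide, bacterial display in this document: peptide library displayed on the E. coli surface as eCPX fusions, selected cells deep-sequenced, score is each peptide's frequency after selection divided by its frequency in the input.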
# 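For phosphorylation enrichment, bacterial display in this document: 11-residue human phosphosite peptides and single-mutation variants displayed on the E. coli surface, counted by deep sequencing, each peptide's frequency after selection divided by its frequency in the unselected input library; frequency after pTyr selection over input frequency; kinase dosed for 20-30% of maximal phosphorylation in three min.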
# Chain of Jak2 (O60674 whole entry, looked up): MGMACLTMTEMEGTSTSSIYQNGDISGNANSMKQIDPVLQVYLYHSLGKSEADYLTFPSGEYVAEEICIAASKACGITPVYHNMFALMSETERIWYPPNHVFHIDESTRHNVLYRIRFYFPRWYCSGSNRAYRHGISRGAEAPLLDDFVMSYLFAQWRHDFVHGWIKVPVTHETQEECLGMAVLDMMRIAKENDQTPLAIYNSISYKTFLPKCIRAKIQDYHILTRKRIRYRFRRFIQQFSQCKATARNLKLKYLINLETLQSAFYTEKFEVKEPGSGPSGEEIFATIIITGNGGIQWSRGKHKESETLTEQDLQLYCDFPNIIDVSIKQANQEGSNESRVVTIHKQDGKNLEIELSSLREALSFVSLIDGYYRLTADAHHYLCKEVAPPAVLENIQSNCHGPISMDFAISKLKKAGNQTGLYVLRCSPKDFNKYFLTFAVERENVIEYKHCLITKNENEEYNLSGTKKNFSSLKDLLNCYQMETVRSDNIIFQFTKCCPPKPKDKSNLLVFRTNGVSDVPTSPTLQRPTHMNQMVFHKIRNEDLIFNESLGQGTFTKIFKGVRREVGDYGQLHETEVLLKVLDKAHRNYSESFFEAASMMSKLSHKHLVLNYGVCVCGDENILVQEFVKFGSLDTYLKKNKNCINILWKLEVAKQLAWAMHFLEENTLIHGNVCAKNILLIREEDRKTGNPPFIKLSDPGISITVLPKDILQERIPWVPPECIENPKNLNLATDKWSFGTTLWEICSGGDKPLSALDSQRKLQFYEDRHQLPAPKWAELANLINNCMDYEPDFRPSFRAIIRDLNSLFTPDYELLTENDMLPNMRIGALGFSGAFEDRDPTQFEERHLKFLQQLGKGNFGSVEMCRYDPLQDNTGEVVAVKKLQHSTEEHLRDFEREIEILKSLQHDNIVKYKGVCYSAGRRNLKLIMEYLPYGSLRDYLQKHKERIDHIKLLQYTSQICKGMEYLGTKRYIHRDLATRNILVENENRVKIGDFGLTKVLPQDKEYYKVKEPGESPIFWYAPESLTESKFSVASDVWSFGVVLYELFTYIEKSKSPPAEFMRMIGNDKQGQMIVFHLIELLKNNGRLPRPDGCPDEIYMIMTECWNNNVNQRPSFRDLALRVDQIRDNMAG
# Chain of Hck (P08631 whole entry, looked up): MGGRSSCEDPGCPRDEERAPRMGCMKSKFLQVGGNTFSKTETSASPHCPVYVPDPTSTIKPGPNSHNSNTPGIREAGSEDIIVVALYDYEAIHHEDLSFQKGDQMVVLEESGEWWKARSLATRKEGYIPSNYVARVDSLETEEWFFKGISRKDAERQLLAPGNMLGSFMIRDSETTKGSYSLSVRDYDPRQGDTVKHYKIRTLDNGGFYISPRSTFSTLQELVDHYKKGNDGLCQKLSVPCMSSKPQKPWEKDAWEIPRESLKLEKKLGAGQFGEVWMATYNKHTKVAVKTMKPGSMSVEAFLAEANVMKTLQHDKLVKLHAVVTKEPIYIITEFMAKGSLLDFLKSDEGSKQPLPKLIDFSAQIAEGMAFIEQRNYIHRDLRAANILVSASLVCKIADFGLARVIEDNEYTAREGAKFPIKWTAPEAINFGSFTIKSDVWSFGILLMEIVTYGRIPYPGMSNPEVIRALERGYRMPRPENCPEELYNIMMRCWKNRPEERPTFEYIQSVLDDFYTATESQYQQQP
# Chain of FGFR3 (P22607 whole entry, looked up): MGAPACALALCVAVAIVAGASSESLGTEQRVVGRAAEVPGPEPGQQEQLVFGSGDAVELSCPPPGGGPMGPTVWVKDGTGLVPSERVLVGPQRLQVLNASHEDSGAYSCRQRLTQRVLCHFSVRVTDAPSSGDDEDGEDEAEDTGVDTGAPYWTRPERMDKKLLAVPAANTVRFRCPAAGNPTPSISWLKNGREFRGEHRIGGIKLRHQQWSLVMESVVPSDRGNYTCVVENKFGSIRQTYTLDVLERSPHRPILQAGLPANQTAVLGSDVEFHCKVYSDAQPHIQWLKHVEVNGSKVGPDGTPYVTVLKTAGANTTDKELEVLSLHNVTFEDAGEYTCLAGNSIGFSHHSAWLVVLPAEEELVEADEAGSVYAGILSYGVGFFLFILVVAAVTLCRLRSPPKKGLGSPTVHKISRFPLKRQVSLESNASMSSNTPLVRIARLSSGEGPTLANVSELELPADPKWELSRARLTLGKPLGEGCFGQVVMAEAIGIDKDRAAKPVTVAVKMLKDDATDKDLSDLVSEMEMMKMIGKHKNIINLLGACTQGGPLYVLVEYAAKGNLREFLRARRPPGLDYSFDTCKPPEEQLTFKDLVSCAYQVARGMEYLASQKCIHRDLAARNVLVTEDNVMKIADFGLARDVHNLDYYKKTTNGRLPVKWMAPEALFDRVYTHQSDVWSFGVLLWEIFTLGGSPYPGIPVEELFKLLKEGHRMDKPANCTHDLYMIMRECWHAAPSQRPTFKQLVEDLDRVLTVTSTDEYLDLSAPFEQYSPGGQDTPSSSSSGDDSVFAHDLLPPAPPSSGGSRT
# Chain of FGFR1 (P11362 whole entry, looked up): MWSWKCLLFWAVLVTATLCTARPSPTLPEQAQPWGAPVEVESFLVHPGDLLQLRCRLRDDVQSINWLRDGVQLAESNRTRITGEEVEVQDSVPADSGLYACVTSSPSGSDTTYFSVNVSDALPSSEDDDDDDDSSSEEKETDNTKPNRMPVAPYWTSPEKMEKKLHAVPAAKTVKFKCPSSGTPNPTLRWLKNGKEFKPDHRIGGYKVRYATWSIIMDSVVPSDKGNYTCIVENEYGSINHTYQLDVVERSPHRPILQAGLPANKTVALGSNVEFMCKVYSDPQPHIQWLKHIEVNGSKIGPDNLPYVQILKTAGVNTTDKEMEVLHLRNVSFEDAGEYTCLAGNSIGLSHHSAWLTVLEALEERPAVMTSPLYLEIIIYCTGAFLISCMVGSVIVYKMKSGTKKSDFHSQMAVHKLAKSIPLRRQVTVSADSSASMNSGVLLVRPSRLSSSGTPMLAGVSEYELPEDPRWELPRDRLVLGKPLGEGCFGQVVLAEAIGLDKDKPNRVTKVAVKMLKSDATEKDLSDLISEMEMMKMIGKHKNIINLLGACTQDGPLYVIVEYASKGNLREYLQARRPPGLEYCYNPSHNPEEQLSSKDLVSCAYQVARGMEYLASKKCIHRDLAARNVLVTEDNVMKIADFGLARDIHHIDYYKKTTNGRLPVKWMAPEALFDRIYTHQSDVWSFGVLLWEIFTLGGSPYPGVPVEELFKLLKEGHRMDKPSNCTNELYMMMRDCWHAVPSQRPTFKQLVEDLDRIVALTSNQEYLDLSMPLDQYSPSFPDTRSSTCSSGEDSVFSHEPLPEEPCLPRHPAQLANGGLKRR
# Chain of Fes (P07332 whole entry, looked up): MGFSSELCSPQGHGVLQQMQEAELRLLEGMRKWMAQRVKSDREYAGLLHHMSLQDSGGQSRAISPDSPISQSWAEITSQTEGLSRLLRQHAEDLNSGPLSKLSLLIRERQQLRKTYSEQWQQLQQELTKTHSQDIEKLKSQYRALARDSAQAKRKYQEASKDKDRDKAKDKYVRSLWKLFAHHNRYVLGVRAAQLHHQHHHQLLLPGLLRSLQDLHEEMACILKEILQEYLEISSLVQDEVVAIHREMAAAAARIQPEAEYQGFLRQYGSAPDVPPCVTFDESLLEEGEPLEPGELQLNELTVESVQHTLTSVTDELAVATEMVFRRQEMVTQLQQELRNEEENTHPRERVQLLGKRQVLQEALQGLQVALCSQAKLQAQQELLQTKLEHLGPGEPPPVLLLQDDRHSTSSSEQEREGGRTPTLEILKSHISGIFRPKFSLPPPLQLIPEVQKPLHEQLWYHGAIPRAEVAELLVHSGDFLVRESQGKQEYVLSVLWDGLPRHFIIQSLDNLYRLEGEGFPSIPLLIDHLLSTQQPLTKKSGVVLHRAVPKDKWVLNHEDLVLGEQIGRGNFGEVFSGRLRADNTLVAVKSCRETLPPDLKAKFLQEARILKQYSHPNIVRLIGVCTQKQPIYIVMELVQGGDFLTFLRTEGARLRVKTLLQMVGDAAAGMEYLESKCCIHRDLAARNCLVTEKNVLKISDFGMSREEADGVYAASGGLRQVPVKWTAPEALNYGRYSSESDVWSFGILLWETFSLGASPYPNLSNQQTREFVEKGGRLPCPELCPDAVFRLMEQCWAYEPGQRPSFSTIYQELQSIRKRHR
# Chain of EPHB1 (P54762 whole entry, looked up): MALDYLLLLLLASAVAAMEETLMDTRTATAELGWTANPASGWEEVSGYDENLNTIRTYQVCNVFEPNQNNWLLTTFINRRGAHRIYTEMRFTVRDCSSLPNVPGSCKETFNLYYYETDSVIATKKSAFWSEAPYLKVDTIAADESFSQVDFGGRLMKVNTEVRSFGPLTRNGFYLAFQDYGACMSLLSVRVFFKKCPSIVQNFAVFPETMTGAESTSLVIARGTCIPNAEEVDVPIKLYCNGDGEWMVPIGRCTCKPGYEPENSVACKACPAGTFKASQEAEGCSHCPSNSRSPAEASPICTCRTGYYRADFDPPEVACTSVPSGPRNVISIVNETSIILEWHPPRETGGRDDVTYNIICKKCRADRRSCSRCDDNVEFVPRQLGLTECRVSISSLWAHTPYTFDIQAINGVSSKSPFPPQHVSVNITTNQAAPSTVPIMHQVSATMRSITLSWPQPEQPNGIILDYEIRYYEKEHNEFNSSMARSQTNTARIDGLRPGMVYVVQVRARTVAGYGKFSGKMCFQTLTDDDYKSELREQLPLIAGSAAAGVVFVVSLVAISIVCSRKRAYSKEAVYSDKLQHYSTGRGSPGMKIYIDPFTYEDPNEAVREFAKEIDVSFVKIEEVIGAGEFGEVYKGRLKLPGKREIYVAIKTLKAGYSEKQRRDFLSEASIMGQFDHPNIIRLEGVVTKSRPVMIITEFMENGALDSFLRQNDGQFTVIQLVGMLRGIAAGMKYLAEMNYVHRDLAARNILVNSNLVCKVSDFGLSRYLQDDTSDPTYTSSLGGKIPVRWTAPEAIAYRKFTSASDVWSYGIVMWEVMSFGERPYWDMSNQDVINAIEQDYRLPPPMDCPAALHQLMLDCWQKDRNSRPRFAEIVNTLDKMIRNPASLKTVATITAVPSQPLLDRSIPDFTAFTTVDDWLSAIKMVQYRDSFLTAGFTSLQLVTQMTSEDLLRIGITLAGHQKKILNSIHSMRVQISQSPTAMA
SH2 binding enrichment (SHP2-C SH2),SH2 binding enrichment (c-Src SH2),SH2 binding enrichment (Grb2 SH2),Sequence,phosphorylation enrichment (AncSZ),phosphorylation enrichment (FGFR1),phosphorylation enrichment (c-Abl (mouse)),phosphorylation enrichment (FGFR3),phosphorylation enrichment (Fer (mouse)),phosphorylation enrichment (Fyn),phosphorylation enrichment (Jak2),phosphorylation enrichment (Hck),phosphorylation enrichment (EPHB2),phosphorylation enrichment (MERTK),phosphorylation enrichment (EPHB1),phosphorylation enrichment (Fes),phosphorylation enrichment (c-Src)
0.701,0.549,0.855,AAILGYCHGEA [XPC_Y669_R671H],0.975,0.523,0.7,0.733,0.474,0.535,0.725,0.53,0.75,0.827,0.581,1.03,0.373
0.554,0.625,0.82,ADFFDYGRGLS [KHDRBS3_Y304_H306R_YF],0.808,0.414,0.59,0.702,0.4,0.518,0.798,0.421,0.522,0.369,0.426,0.746,0.521
1.11,2.62,0.929,AEDKPYAELWT [MPI_Y46_M51T],1.17,1.01,0.772,1,7.1,1.3,0.958,1.13,0.737,0.994,0.689,1.25,2.54

# Second part, the sequence before the results:
Sequence,SH2 binding enrichment (SHP2-C SH2),SH2 binding enrichment (c-Src SH2),SH2 binding enrichment (Grb2 SH2),phosphorylation enrichment (AncSZ),phosphorylation enrichment (FGFR1),phosphorylation enrichment (c-Abl (mouse)),phosphorylation enrichment (FGFR3),phosphorylation enrichment (Fer (mouse)),phosphorylation enrichment (Fyn),phosphorylation enrichment (Jak2),phosphorylation enrichment (Hck),phosphorylation enrichment (EPHB2),phosphorylation enrichment (MERTK),phosphorylation enrichment (EPHB1),phosphorylation enrichment (Fes),phosphorylation enrichment (c-Src)
AAGGRYYGLVG [HARS1_Y363_D364Y],0.595,1.79,0.938,0.56,0.432,0.671,0.451,0.45,0.618,0.49,0.715,0.441,3.95,0.347,0.601,0.867
AAVDTYCRHNF [HLA-DRB1_Y107_YF],0.593,0.529,0.912,0.794,0.426,0.755,0.715,0.589,0.415,0.88,0.501,0.516,0.497,0.562,1.04,0.548
ADAGMYGVLPW [PLP1_Y207_R205G],0.74,0.435,0.726,0.803,0.549,3.07,0.529,2.39,9.65,0.637,9.1,6.53,6.35,1.76,0.845,6.61
ADARMYGDLPW [PLP1_Y207_V209D],1.09,0.573,0.868,0.766,0.6,0.586,0.7,1.43,3.54,0.71,3.49,0.506,0.52,0.65,0.794,2.74
ADTETYLLEKS [MYH7_Y266_I263T],0.785,0.56,0.859,1.12,0.57,0.709,0.745,0.607,0.603,1.01,0.512,0.586,0.385,0.449,1.1,0.551

# — the supplement of paper PMC10065799, “High-throughput profiling of sequence recognition by tyrosine kinases and SH2 domains using bacterial peptide display” (eLife, 2023)
